According to patent US20210388087A1 (Chugai, published 2021):
Positions count from the first letter of the chain named. Names and notes keep the numbering of the source.

B1: CE115HA000 K52R one-arm antibody (antibody, human IgG1, kappa, L234A L235A, N297A, name in Kabat numbering)
heavy: QVQLVESGGGVVQPGRSLRLSCAASGFTFSNAWMHWVRQAPGKGLEWVAQIRAKSNNYATYYAESVKGRFTISRDDSKNSLYLQMNSLKTEDTAVYYCRYVHYGAYYGVDAWGQGTTVTVSSASTKGPSVFPLAPSSKSTSGGTAALGCLVKDYFPEPVTVSWNSGALTSGVHTFPAVLQSSGLYSLSSVVTVPSSSLGTQTYICNVNHKPSNTKVDKKVEPKSCDKTHTCPPCPAPEAAGGPSVFLFPPKPKDTLMISRTPEVTCVVVDVSHEDPEVKFNWYVDGVEVHNAKTKPREEQYASTYRVVSVLTVLHQDWLNGKEYKCKVSNKALPAPIEKTISKAKGQPREPQVYTLPPSRCELTKNQVSLSCAVKGFYPSDIAVEWESNGQPENNYKTTPPVLDSDGSFFLVSKLTVDKSRWQQGNVFSCSVMHEALHNHYTQKSLSLSPDYKDDDDK
chain: EPKSSDKTHTCPPCPAPELLGGPSVFLFPPKPKDTLMISRTPEVTCVVVDVSHEDPEVKFNWYVDGVEVHNAKTKPREEQYNSTYRVVSVLTVLHQDWLNGKEYKCKVSNKALPAPIEKTISKAKGQPREPQVCTLPPSRDELTKNQVSLWCLVKGFYPSDIAVEWESNGQPENNYKTTPPVLDSDGSFFLYSKLTVDKSRWQQGNVFSCSVMHEALHNRYTQKSLSLSP
light: DIVMTQSPLSLPVTPGEPASISCRSSQSLVHSNRNTYLHWYQQKPGQAPRLLIYKVSNRFSGVPDRFSGSGSGTDFTLKISRVEAEDVGVYYCGQGTQVPYTFGQGTKLEIKRTVAAPSVFIFPPSDEQLKSGTASVVCLLNNFYPREAKVQWKVDNALQSGNSQESVTEQDSKDSTYSLSSTLTLSKADYEKHKVYACEVTHQGLSSPVTKSFNRGEC
B2: CE115HA000 N31R one-arm antibody (antibody, human IgG1, kappa, L234A L235A, N297A, name in Kabat numbering)
heavy: B1 heavy with N31R, R52K
chain: B1 chain
light: B1 light
B3: CE115HA000 N31D one-arm antibody (antibody, human IgG1, kappa, L234A L235A, N297A, name in Kabat numbering)
heavy: B1 heavy with N31D, R52K
chain: B1 chain
light: B1 light
B4: CE115HA000 K75R one-arm antibody (antibody, human IgG1, kappa, L234A L235A, N297A, name in Kabat numbering)
heavy: B1 heavy with R52K, K78R
chain: B1 chain
light: B1 light
B5: CE115HA000 N31Y one-arm antibody (antibody, human IgG1, kappa, L234A L235A, N297A, name in Kabat numbering)
heavy: B1 heavy with N31Y, R52K
chain: B1 chain
light: B1 light
B6: CE115HA000 K52Y one-arm antibody (antibody, human IgG1, kappa, L234A L235A, N297A, name in Kabat numbering)
heavy: B1 heavy with R52Y
chain: B1 chain
light: B1 light
B7: CE115HA000 N31F one-arm antibody (antibody, human IgG1, kappa, L234A L235A, N297A, name in Kabat numbering)
heavy: B1 heavy with N31F, R52K
chain: B1 chain
light: B1 light
B8: CE115HA000 L78I one-arm antibody (antibody, human IgG1, kappa, L234A L235A, N297A, name in Kabat numbering)
heavy: B1 heavy with R52K, L81I
chain: B1 chain
light: B1 light
B9: CE115HA000 K52bN one-arm antibody (antibody, human IgG1, kappa, L234A L235A, N297A, name in Kabat numbering)
heavy: B1 heavy with R52K, K54N
chain: B1 chain
light: B1 light
B10: CE115HA000 K64S one-arm antibody (antibody, human IgG1, kappa, L234A L235A, N297A, name in Kabat numbering)
heavy: B1 heavy with R52K, K67S
chain: B1 chain
light: B1 light
B11: CE115HA000 K75T one-arm antibody (antibody, human IgG1, kappa, L234A L235A, N297A, name in Kabat numbering)
heavy: B1 heavy with R52K, K78T
chain: B1 chain
light: B1 light
B12: CE115HA000 K64D one-arm antibody (antibody, human IgG1, kappa, L234A L235A, N297A, name in Kabat numbering)
heavy: B1 heavy with R52K, K67D
chain: B1 chain
light: B1 light
B13: CE115HA000 K52bY one-arm antibody (antibody, human IgG1, kappa, L234A L235A, N297A, name in Kabat numbering)
heavy: B1 heavy with R52K, K54Y
chain: B1 chain
light: B1 light
B14: CE115HA000 N31S one-arm antibody (antibody, human IgG1, kappa, L234A L235A, N297A, name in Kabat numbering)
heavy: B1 heavy with N31S, R52K
chain: B1 chain
light: B1 light
B15: CE115HA000 N31H one-arm antibody (antibody, human IgG1, kappa, L234A L235A, N297A, name in Kabat numbering)
heavy: B1 heavy with N31H, R52K
chain: B1 chain
light: B1 light
B16: CE115HA000 K64A one-arm antibody (antibody, human IgG1, kappa, L234A L235A, N297A, name in Kabat numbering)
heavy: B1 heavy with R52K, K67A
chain: B1 chain
light: B1 light
B17: CE115HA000 N31W one-arm antibody (antibody, human IgG1, kappa, L234A L235A, N297A, name in Kabat numbering)
heavy: B1 heavy with N31W, R52K
chain: B1 chain
light: B1 light
B18: CE115HA000 N31K one-arm antibody (antibody, human IgG1, kappa, L234A L235A, N297A, name in Kabat numbering)
heavy: B1 heavy with N31K, R52K
chain: B1 chain
light: B1 light
B19: CE115HA000 K52bA one-arm antibody (antibody, human IgG1, kappa, L234A L235A, N297A, name in Kabat numbering)
heavy: B1 heavy with R52K, K54A
chain: B1 chain
light: B1 light
B20: CE115HA000 K52bD one-arm antibody (antibody, human IgG1, kappa, L234A L235A, N297A, name in Kabat numbering)
heavy: B1 heavy with R52K, K54D
chain: B1 chain
light: B1 light
B21: CE115HA000 N31I one-arm antibody (antibody, human IgG1, kappa, L234A L235A, N297A, name in Kabat numbering)
heavy: B1 heavy with N31I, R52K
chain: B1 chain
light: B1 light
B22: CE115HA000 K64E one-arm antibody (antibody, human IgG1, kappa, L234A L235A, N297A, name in Kabat numbering)
heavy: B1 heavy with R52K, K67E
chain: B1 chain
light: B1 light
B23: CE115HA000 N31Q one-arm antibody (antibody, human IgG1, kappa, L234A L235A, N297A, name in Kabat numbering)
heavy: B1 heavy with N31Q, R52K
chain: B1 chain
light: B1 light
B24: CE115HA000 N31G one-arm antibody (antibody, human IgG1, kappa, L234A L235A, N297A, name in Kabat numbering)
heavy: B1 heavy with N31G, R52K
chain: B1 chain
light: B1 light
B25: CE115HA000 K52S one-arm antibody (antibody, human IgG1, kappa, L234A L235A, N297A, name in Kabat numbering)
heavy: B1 heavy with R52S
chain: B1 chain
light: B1 light
B26: CE115HA000 K52bR one-arm antibody (antibody, human IgG1, kappa, L234A L235A, N297A, name in Kabat numbering)
heavy: B1 heavy with R52K, K54R
chain: B1 chain
light: B1 light
B27: CE115HA000 K52bL one-arm antibody (antibody, human IgG1, kappa, L234A L235A, N297A, name in Kabat numbering)
heavy: B1 heavy with R52K, K54L
chain: B1 chain
light: B1 light
B28: CE115HA000 K52bQ one-arm antibody (antibody, human IgG1, kappa, L234A L235A, N297A, name in Kabat numbering)
heavy: B1 heavy with R52K, K54Q
chain: B1 chain
light: B1 light
B29: CE115HA000 K52W one-arm antibody (antibody, human IgG1, kappa, L234A L235A, N297A, name in Kabat numbering)
heavy: B1 heavy with R52W
chain: B1 chain
light: B1 light
B30: CE115HA000 N53A one-arm antibody (antibody, human IgG1, kappa, L234A L235A, N297A, name in Kabat numbering)
heavy: B1 heavy with R52K, N56A
chain: B1 chain
light: B1 light
B31: CE115HA000 K64Q one-arm antibody (antibody, human IgG1, kappa, L234A L235A, N297A, name in Kabat numbering)
heavy: B1 heavy with R52K, K67Q
chain: B1 chain
light: B1 light
B32: CE115HA000 K52bS one-arm antibody (antibody, human IgG1, kappa, L234A L235A, N297A, name in Kabat numbering)
heavy: B1 heavy with R52K, K54S
chain: B1 chain
light: B1 light
B33: CE115HA000 N31A one-arm antibody (antibody, human IgG1, kappa, L234A L235A, N297A, name in Kabat numbering)
heavy: B1 heavy with N31A, R52K
chain: B1 chain
light: B1 light
notes: one-arm antibody: altered VH on pE22Hh, Fc-only chain Kn010G3, GLS3000 on kappa; the same build holds for m3 to m260

target: T1, CD3 epsilon homodimer protein (UniProt P07766 23-126); experiment: SPR (Biacore T200), CD3 epsilon homodimer on CM4 chip, one-arm antibody as analyte, 25 C;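 also: homodimer attached to the sensor surface via amine coupling, HBS-EP+ used as running buffer during binding runs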
T1 construct: immobilized on Sensor chip CM4 by amine coupling; also called CD3 (CD3 epsilon)
T1 sequence (P07766 23-126): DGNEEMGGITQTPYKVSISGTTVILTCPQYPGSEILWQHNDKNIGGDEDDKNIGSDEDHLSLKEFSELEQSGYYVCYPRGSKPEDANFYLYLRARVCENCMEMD

| Binder | ratio of amounts bound (altered form / CE115HA000) |
| --- | --- |
| B1 | 0.91 |
| B2 | 1.14 |
| B3 | 0.37 |
| B4 | 1.01 |
| B5 | 0.64 |
| B6 | 0.18 |
| B7 | 0.62 |
| B8 | 1.34 |
| B9 | 0.27 |
| B10 | 0.84 |
| B11 | 0.84 |
| B12 | 0.72 |
| B13 | 0.74 |
| B14 | 0.81 |
| B15 | 0.68 |
| B16 | 0.82 |
| B17 | 0.63 |

| Binder | ratio of amounts bound (altered form / CE115HA000) |
| --- | --- |
| B18 | 1.01 |
| B19 | 0.67 |
| B20 | 0.27 |
| B21 | 0.81 |
| B22 | 0.74 |
| B23 | 0.49 |
| B24 | 0.39 |
| B25 | 0.28 |
| B26 | 1.11 |
| B27 | 0.61 |
| B28 | 0.6 |
| B29 | 0.22 |
| B30 | 0.7 |
| B31 | 0.89 |
| B32 | 0.68 |
| B33 | 0.5 |
